Source: patent US12338277

Molecular target: SHIVAD8EO envelope on pseudotyped virus (SHIV (HIV-1 AD8-derived env))
Experiment: cell-based or functional assay

3BNC117 (antibody)
IC50, TZM-bl neutralization of SHIVAD8EO: 0.14 µg/mL
